Assay results: paper PMC8016751 (Nature, 2020)
Where two headings read alike, the source gives them in different places. Each block holds one molecule with its values, some of them ahead of it.

Columns and labels:
[1] = target: Mer2 coiled-coil single-chain dimer (S. cerevisiae) (UniProt P21651); assay: SEC-MALS
SEC-MALS [2] = target: the molecule itself; assay: SEC-MALS
Rec114-Mei4 = target: T1, Rec114-Mei4 (Saccharomyces cerevisiae, UniProt P32841;P29467 1-428;1-408); assay: EMSA
T1 sequence 1: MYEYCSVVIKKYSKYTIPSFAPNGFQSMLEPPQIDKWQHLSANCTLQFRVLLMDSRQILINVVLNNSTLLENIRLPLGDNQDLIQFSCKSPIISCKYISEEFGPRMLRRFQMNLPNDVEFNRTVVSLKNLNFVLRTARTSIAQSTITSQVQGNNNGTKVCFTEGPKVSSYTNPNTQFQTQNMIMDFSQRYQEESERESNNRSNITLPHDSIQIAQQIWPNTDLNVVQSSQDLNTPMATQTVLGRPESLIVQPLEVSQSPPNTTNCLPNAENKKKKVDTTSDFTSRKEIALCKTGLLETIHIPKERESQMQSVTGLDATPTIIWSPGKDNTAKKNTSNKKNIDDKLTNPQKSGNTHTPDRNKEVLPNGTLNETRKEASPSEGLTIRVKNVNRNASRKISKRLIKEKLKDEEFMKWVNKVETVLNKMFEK
T1 sequence 2: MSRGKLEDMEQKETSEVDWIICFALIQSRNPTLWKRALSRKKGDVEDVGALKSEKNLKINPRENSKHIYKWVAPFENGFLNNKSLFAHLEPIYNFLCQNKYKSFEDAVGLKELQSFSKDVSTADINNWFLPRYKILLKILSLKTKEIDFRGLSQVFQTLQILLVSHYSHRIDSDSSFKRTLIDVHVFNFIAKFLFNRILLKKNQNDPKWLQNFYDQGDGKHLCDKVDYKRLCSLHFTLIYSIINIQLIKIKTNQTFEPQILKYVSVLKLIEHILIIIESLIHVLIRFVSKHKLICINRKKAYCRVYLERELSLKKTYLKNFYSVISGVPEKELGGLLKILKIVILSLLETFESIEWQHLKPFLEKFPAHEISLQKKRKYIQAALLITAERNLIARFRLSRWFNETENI

Mer2 = target: T2, Mer2 (Saccharomyces cerevisiae, UniProt P21651 1-314); assay: EMSA
T2 sequence: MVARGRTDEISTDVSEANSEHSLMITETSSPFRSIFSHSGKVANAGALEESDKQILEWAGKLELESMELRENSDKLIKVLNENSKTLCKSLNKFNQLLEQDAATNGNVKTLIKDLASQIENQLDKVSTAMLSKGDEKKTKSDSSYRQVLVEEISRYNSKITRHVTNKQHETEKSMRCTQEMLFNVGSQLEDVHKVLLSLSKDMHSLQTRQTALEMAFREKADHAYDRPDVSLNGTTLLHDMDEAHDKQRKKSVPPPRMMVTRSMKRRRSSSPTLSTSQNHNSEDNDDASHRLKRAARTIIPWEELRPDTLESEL

SEC-MALS [3] = target: the molecule itself; assay: SEC-MALS; remark: listed apart in the source
MBP-tagged Mei4 = target: T3, MBP-tagged Mei4 (S. cerevisiae, UniProt P29467 1-408); assay: SEC-MALS
T3 sequence: T1 sequence 2

[4] = target: T4, Mei4 (untagged, from ^MBP-TEVMei4) (S. cerevisiae, UniProt P29467 1-408); assay: SEC-MALS
T4 sequence: T1 sequence 2

- stoichiometry N [1]: 2
Molecule: Mer2 coiled-coil single-chain dimer (from UniProt P21651)

B1: Mer2 (untagged, from ^SUMOMer2) (natural protein)
chain: T2 sequence
- stoichiometry N (SEC-MALS [2]): 4

B2: dsDNA20 (dsDNA)
DNA 1: AAAGATGTCCTAGCAATGTA
DNA 2: TACATTGCTAGGACATCTTT
- apparent K (half saturation) (Rec114-Mei4): ~80 nM
- apparent K (half saturation) (Mer2): > 400 nM

B3: Mer2 coiled-coil domain (residues 77-227) (domain or fragment)
chain: IKVLNENSKTLCKSLNKFNQLLEQDAATNGNVKTLIKDLASQIENQLDKVSTAMLSKGDEKKTKSDSSYRQVLVEEISRYNSKITRHVTNKQHETEKSMRCTQEMLFNVGSQLEDVHKVLLSLSKDMHSLQTRQTALEMAFREKADHAYDR
- stoichiometry N (SEC-MALS [3]): 4

B4: dsDNA40 (dsDNA)
DNA 1: CAACGTGGGCAAAGATGTCCTAGCAATGTAATCGTCTATG
DNA 2: CATAGACGATTACATTGCTAGGACATCTTTGCCCACGTTG
- apparent K (half saturation) (Rec114-Mei4): 35 nM
- apparent K (half saturation) (Mer2): 64 nM

B5: dsDNA80 (dsDNA)
DNA 1: CTAGTATAGAGCCGGCGCGCCATGTCTAGATAGCGTTAGGTCTGCCGAATAGTACTACTCGGATCCCGAGCGAACCACGC
DNA 2: GCGTGGTTCGCTCGGGATCCGAGTAGTACTATTCGGCAGACCTAACGCTATCTAGACATGGCGCGCCGGCTCTATACTAG
- apparent K (half saturation) (Rec114-Mei4): 6 nM
- apparent K (half saturation) (Mer2): 19 nM

- stoichiometry N (MBP-tagged Mei4): 2 Rec114 per Mei4
B6: HisFlag-tagged Rec114 (natural protein)
chain: T1 sequence 1

- stoichiometry N [4]: 2 Rec114 per Mei4
B7: Rec114 (untagged, from ^HisFlag-TEVRec114) (natural protein)
chain: T1 sequence 1
